Test results as given in patent US20230312723A1, “METHODS AND COMPOSITIONS FOR NON-SMALL CELL LUNG CANCER IMMUNOTHERAPY” (Genentech, Inc., priority 2020, published 2023).
Marks after values point to notes of the source that are not given here.

Columns and labels:
[1] = system: patients with Stage IV NSCLC; test: Phase III study: safety, adverse events graded according to NCI CTCAE v4.0
[2] = system: patients with Stage IV NSCLC; settings: in vivo
[3] = system: Stage IV non-squamous or squamous NSCLC; test: Phase III randomized open-label study of atezolizumab vs platinum-based chemotherapy: efficacy (OS, PFS, ORR, DOR per RECIST v1.1), incl. PD-L1 and bTMB subgroups; assay type: in vivo, human
Experimental: As described below, the primary endpoint of this study was improvement in overall survival (OS). Secondary endpoints included progression-free survival (PFS), overall response rate (ORR), and duration of response (DOR), among others.
FIG. 1 illustrates the study design.
At screening, tumor specimens from each potentially eligible patient were tested for PD-L1 expression by a central laboratory using an IHC assay. Only patients who are PD-L1 selected (TC1/2/3 or 101/2/3; corresponding to 1% PD-L1 expressing TCs and 1% of tumor area occupied by PD-L1 expressing ICs) were enrolled. […] Randomization was stratified by sex (male vs. female), ECOG Performance Status (0 vs. 1), histology (non-squamous vs. squamous), and PD-L1 tumor expression by IHC (TC1/2/3 and any IC vs. TC0 and 101/2/3).
Patients randomized to receive pemetrexed in combination with either cisplatin or carboplatin (non-squamous disease) received chemotherapy intravenously on Day 1 of each 21-day cycle for four or six cycles, followed by maintenance therapy with pemetrexed. Patients randomized to receive gemcitabine in combination with either cisplatin or carboplatin (squamous disease) received cisplatin or carboplatin intravenously on Day 1 and gemcitabine intravenously on Days 1 and 8 of each 21-day cycle for four or six cycles, followed by best supportive care. The intended number of cycles planned for the platinum-based induction chemotherapy (i.e., four or six cycles) was specified by the investigator prior to study randomization. Treatment will continue until disease progression, unacceptable toxicity, or death.
All patients underwent tumor assessment at baseline and every 6 weeks (±7 days) for 48 weeks following Cycle 1, Day 1 regardless of treatment delays. […] In the absence of radiographic disease progression per RECIST v1.1, tumor assessments continued regardless of whether patients start a new anti-cancer therapy.
The primary efficacy outcome measure for this study is OS, defined as the time from randomization to death from any cause.
The secondary efficacy outcome measures for this study are as follows: • PFS, defined as the time from randomization to the first occurrence of disease progression, as determined by the investigator with use of RECIST v1.1, or death from any cause, whichever occurs first • Objective response (PR plus CR) as determined by the investigator according to RECIST v1.1 • DOR, defined as the time from the first occurrence of a documented objective response to the time of disease progression, as determined by the investigator with use of RECIST v1.1, or death from any cause, whichever occurs first • OS at 1- and 2-year landmark timepoints • TTD and change from baseline (i.e., improvement or deterioration based on presenting symptomatology) in each of the patient-reported lung cancer symptoms (cough, dyspnea, or chest pain) with use of the SILO scale • TTD in patient-reported lung cancer symptoms, defined as time from randomization to deterioration (10-point change) in any of the following symptom subscales (cough, dyspnea [multi-item scale], and chest pain), whichever occurs first, as measured by the EORTC QLQ-LC13 • OS and investigator-assessed PFS according to RECIST v1.1 in the PD-L1 (defined with SP263 IHC assay) and bTMB subpopulations. The bTMB assay (Foundation Medicine, Cambridge, MA) identifies single nucleotide variants at ≥0.5% across 394 genes and estimates tumor fraction by maximum somatic allele frequency, filters out germline events and counts non-driver somatic mutations to generate a bTMB score. The bTMB score cutoffs evaluated were 0, 6 and […] of 16 (16 mutations/1.1 Mb) equates to approximately 14.5 mutations/Mb.

[4] = TC1/2/3 or IC1/2/3-WT population
[5] = bTMB 6 cutoff, bTMB BEP-WT population

atezolizumab
Grade 5 AE: Total, % of patients ([1]; Chemo N = 263, Atezo N = 286): 3.8%
Safety profile compared to platinum-based chemotherapy (in words) ([1]; safety population: 286 patients Arm A, 263 Arm B): favorable safety profile
AESI Adrenal insufficiency Gr3-4, patients with event [2]: 0
AESI Adrenal insufficiency, patients with event [2]: 2
AESI Adrenal insufficiency, percent of patients [2]: (0.7%)
AESI Colitis Gr3-4, patients with event [2]: 2
AESI Colitis Gr3-4, percent of patients [2]: (0.7%)
AESI Colitis, patients with event [2]: 3
AESI Colitis, percent of patients [2]: (1.0%)
AESI Diabetes Mellitus Gr3-4, patients with event [2]: 1
AESI Diabetes Mellitus Gr3-4, percent of patients [2]: (0.3%)
AESI Diabetes Mellitus, patients with event [2]: 2
AESI Diabetes Mellitus, percent of patients [2]: (0.7%)
AESI Hepatitis Gr3-4, patients with event [2]: 12
AESI Hepatitis Gr3-4, percent of patients [2]: (4.2%)*
AESI Hepatitis, patients with event [2]: 46
AESI Hepatitis, percent of patients [2]: (16.1%)
AESI Hyperthyroidism Gr3-4, patients with event [2]: 0
AESI Hyperthyroidism, patients with event [2]: 13
AESI Hyperthyroidism, percent of patients [2]: (4.5%)
AESI Hypothyroidism Gr3-4, patients with event [2]: 0
AESI Hypothyroidism, patients with event [2]: 27
AESI Hypothyroidism, percent of patients [2]: (9.4%)
AESI Infusion-Related Reactions Gr3-4, patients with event [2]: 0
AESI Infusion-Related Reactions, patients with event [2]: 4
AESI Infusion-Related Reactions, percent of patients [2]: (1.4%)
AESI Myocarditis Gr3-4, patients with event [2]: 1
AESI Myocarditis Gr3-4, percent of patients [2]: (0.3%)
AESI Myocarditis, patients with event [2]: 1
AESI Myocarditis, percent of patients [2]: (0.3%)
AESI Myositis Gr3-4, patients with event [2]: 0
AESI Myositis, patients with event [2]: 1
AESI Myositis, percent of patients [2]: (0.3%)
AESI Nephritis Gr3-4, patients with event [2]: 0
AESI Nephritis, patients with event [2]: 1
AESI Nephritis, percent of patients [2]: (0.3%)
AESI Pneumonitis Gr3-4, patients with event [2]: 2
AESI Pneumonitis Gr3-4, percent of patients [2]: (0.7%)
AESI Pneumonitis, patients with event [2]: 11
AESI Pneumonitis, percent of patients [2]: (3.8%)
AESI Rash Gr3-4, patients with event [2]: 3
AESI Rash Gr3-4, percent of patients [2]: (1.0%)
AESI Rash, patients with event [2]: 44
AESI Rash, percent of patients [2]: (15.4%)
AESI Severe Cutaneous Adverse Reaction Gr3-4, patients with event [2]: 0
AESI Severe Cutaneous Adverse Reaction, patients with event [2]: 2
AESI Severe Cutaneous Adverse Reaction, percent of patients [2]: (0.7%)
AESI Vasculitis Gr3-4, patients with event [2]: 1
AESI Vasculitis Gr3-4, percent of patients [2]: (0.3%)
AESI Vasculitis, patients with event [2]: 1
AESI Vasculitis, percent of patients [2]: (0.3%)
Immune-mediated Adrenal insufficiency requiring systemic corticosteroids, % [2]: (0.3) %
Immune-mediated Diabetes mellitus requiring systemic corticosteroids, % [2]: (0.3) %
Immune-mediated Hypothyroidism requiring systemic corticosteroids, % [2]: (0.3) %
Immune-mediated Infusion-related reaction requiring systemic corticosteroids, % [2]: (0.3) %
Immune-mediated Nephritis requiring systemic corticosteroids, % [2]: (0.3) %
OS vs chemotherapy (in words) ([3]; PD-L1-positive BEP subgroups): OS improvement favoring atezolizumab vs chemotherapy
Median OS [3, 4]: 17.5 months
OS HR, stratified (atezo vs chemo) [3, 4]: 0.832
Median OS ([3]; TC2/3 or IC2/3-WT population): 18.2 months
OS HR, stratified (atezo vs chemo) ([3]; TC2/3 or IC2/3-WT population): 0.717
Confirmed ORR ([3]; TC3 or IC3-WT population): 38.3% (29.08,
Overall Survival, Median ([3]; TC3 or IC3-WT population): 20.2 months
Overall Survival, Stratified HR (atezo vs chemo) ([3]; TC3 or IC3-WT population): 0.595
Overall Survival, improvement of median vs chemo ([3]; TC3 or IC3-WT population): 7.1 months
Progression-Free Survival, Median ([3]; TC3 or IC3-WT population): 8.1 months
Progression-Free Survival, Stratified HR (atezo vs chemo) ([3]; TC3 or IC3-WT population): 0.630
Progression-Free Survival, improvement of median vs chemo ([3]; TC3 or IC3-WT population): 3.1 months
PFS vs chemotherapy (in words) ([3]; across PD-L1 BEP subgroups): PFS improvement with atezolizumab was observed
OS unstratified HR (atezolizumab vs chemotherapy) [3, 5]: 0.75
PFS HR (atezolizumab vs chemotherapy) [3, 5]: 0.55
